Results on one protein are retold here after publication PMC5681633, “SnO2 hollow nanotubes: a novel and efficient support matrix for enzyme immobilization” (Scientific Reports, 2017).

Substrate in the data set: CCCCCCCCCCCCCCCC(=O)Oc1ccc([N+](=O)[O-])cc1
The data set can be described thus: hydrolysis assay, Michaelis-Menten nonlinear fit. The following applies: free enzyme, optimum temperature and pH (50 °C, pH 8.5, 20 mM Tris-HCl), substrate 0.05-5.0 mM, p-NPP as the standard assay substrate. The class given is biochemical, Thermomyces lanuginosus. An excerpt: hydrolysis assay, Michaelis-Menten nonlinear fit on Lipase from Thermomyces lanuginosus (Lipozyme TL 100 L)

As a reminder, the Km is the concentration of substrate that gives half-maximal velocity.

B1: Lipase from Thermomyces lanuginosus (Lipozyme TL 100 L) (Thermomyces lanuginosus) (protein)
chain: EVSQDLFNQFNLFAQYSAAAYCGKNNDAPAGTNITCTGNACPEVEKADATFLYSFEDSGVGDVTGFLALDNTNKLIVLSFRGSRSIENWIGNLNFDLKEINDICSGCRGHDGFTSSWRSVADTLRQKVEDAVREHPDYRVVFTGHSLGGALATVAGADLRGNGYDIDVFSYGAPRVGNRAFAEFLTVQTGGTLYRITHTNDIVPRLPPREFGYSHSSPEYWIKSGTLVPVTRNDIVKIEGIDATGGNNQPNIPDIPAHLWYFGLIGTCL
notes: commercial secreted enzyme preparation (Novozymes), free (not immobilised)
As for B1, the Michaelis constant (Km) was found to be 710 ± 50 µM.
